This is an account of results in patent US20230203482A1, “Methods of Rescuing Stop Codons via Genetic Reassignment with ACE-tRNA” (THE WISTAR INSTITUTE OF ANATOMY AND BIOLOGY, priority 2017, published 2023).

Common to all, as to assay type: cell-based, human
Data set [1] deals with native stop codons (TAA, TAG, TGA) of HEK293 transcripts. Description: Ribosome footprint profiling of transcriptome-wide 3′UTRs. From the text:
The question was raised whether ACE-tRNAs that show efficacious suppression of premature stop codons may also induce global readthrough of native stop codons. To address this potential “off target” suppression, a transcriptome-wide quantitative profile of actively engaged ribosomes on all cellular transcripts was obtained by generating libraries of ribosome footprints from HEK293 cells expressing exogenous ACE-tRNAs or a control mock plasmid (puc57GG). Streptomycin was removed from the growth media to prevent readthrough artifacts. For comparison, the ribosome footprint library was also generated from cells in the presence or absence of G418 (150 μM, 48 hours). […] Only transcripts with a minimum threshold of 5 RPKM in the coding sequence and 0.5 RPKM in the 3′UTR in two replicate libraries were included for the quantitation comparison (254 transcripts in G418 and 495-748 transcripts in ACE-tRNAs). […] ACE-tRNAs examined here had no detectable change of 3′UTR ribosome density with the exception of ACE-tRNA Gln-UAA and Arg-UGA which induced approximately a 2-fold increase in 3′UTR ribosome density for the cognate stop codon complimentary to the ACE-tRNA anticodon. Understanding the biological significance of 2-fold readthrough of protein stops will require further study, but this effect is substantially lower compared to the 100- to 1000-fold suppression of PTC for the same ACE-tRNA.
Multiple in-frame stop codons are frequently found at the end of genes^37-39 and may cause a minor difference in overall 3′UTR ribosome density for ACE-tRNA and G418 treatment. Ribosome occupancy was examined at each nucleotide in the 3′UTR within a 60 nt region downstream of the stop codons. […] Reads were normalized per total million-mapped reads, compared against control cells, and reported as a log 2-fold change as in panel A. More than 5,200 transcripts were mapped to at least 1 footprint in the region of interest. […] Taken together, the ribosome profiling data argue that efficiency of native stop codon suppression by ACE-tRNAs is generally low, and markedly less than the level of PTC suppression.
Ribosome Footprint Profiling Library preparation. HEK293 cells transiently transfected with ACE-tRNAs and control plasmid (puc57GG) were grown in standard grown media in the absence of Pen-Strep for 48 h. Libraries were prepared as described^55, with a few modifications. Briefly, cells were rapidly cooled by addition of ice-cold PBS, lysed in lysis buffer (20 mM Tris-HCl/pH7.4, 150 mM NaCl, 5 mM MgCl2, 1 mM DTT, 1% (v/v) Triton X-100, and 25 U ml^−1 Turbo DNase I) for 10 min on ice, and triturated with ten times through a 26-G needle. After clearance by centrifugation at 16,000 g for 10 min at 4° C., the lysates were digested with 100 U RNase I (Ambion, USA) per A260 lysate at room temperature for 45 min with gentle agitation prior to adding 200 U RiboLock RNase Inhibitor (Thermo Scientific). Ribosome protected mRNA fragments were then isolated by loading lysates onto a 1M sucrose cushion prepared in modified polysome buffer (20 mM Tris-HCl/pH7.4, 150 mM NaCl, 8.5 mM MgCl2, 0.5 mM DTT, 20 U ml^−1 RiboLock RNase Inhibitor) and centrifugated at 70,000 rpm at 4° C. for 2 h using a Beckmen TLA-110 rotor. Ribosome pellets containing mRNA footprints were extracted using TRIzol and separated on a denaturing 12% polyacrylamide gel containing 8M urea. RNA fragments with sizes ranging from 26 to 34 nt were manually excised from the gel stained with SYBR Gold (Invitrogen) and isolated to generate the ribosome-protected fragment library. Contaminating rRNA fragments depleted using a Ribo-Zero kit (Illumina). 3′ Oligonucleotide adaptor ligation, reverse transcription, circularization, and secondary rRNA depletion using biotinylated rRNA depletion oligos (Table 9) were performed as described^55. Libraries were barcoded using indexing primers for each sample during PCR amplification. […]

The next data set deals with NLuc-UAG PTC. In words: NanoLuc nonsense reporter screen (all-in-one HTC plasmid), TAG/UAG PTC, HEK293 cells. From the text:
(§1) In order to enable the identification of the nucleotide composition and functional ability to suppress nonsense codons by new types of tRNA, an All-In-One Plasmid With A One Pot Cloning Reaction was invented for High Throughput Cloning FIG. 11. This approach enables the facile investigation of ACE-tRNA activity via luciferase activity in a standard 96 well format. Briefly, synthetic nucleotide sequences encoding for tRNA are ligated into the NanoLuc Reporter plasmid, with an example of the TGA nonsense reporter plasmid variant shown in FIG. 11. […] and TAG (amber) stop codon rescue vectors have been successfully designed and implemented in FIGS. 16-19. The benefits are the approach is that DNA oligos encoding for tRNA libraries can be ligated in the NanoLuc reporter plasmid with the presence of the restriction enzyme and ligase with the reaction pushed to nearly 100% incorporation of tRNA insert (FIG. 11)-thus the ‘one-pot’ designation. The reaction is transformed into E. coli, with the resultant cDNA purified by standard methods. Another benefit of the invented method is that the tRNA and reporter gen are within the single expression cassette, therefore lowering biological variability and improving data quality obtaining in resulting screens of tRNA suppression activity. The purified cDNA plasmids are then screened in high-throughput 96 well format for their ability to repair nonsense codons by inferred luciferase activity. The approach is suitable for the high-throughput screening of hundreds to thousands of tRNA for novel therapeutic activity.
(§2) The rationale of this study is rooted in the observation that there are multiple tRNA genes with unique sequences (isodecoders) for a given cognate amino acid (isoacceptors), leading to >400 tRNAs annotated in the human genome (http:lowelab.ucsc.edu/GtRNAdb/)^28, 29. First, tRNA genes were examined to identify individual ACE-tRNAs that retain suppression efficacy of PTCs in mammalian cells. In order to maximize sequence coverage, an all-in-one cDNA plasmid was generated that supports both high-throughput cloning (HTC) of ACE-tRNAs and quantitative measurement of PTC suppression using luminescence following delivery to mammalian cells, FIG. 21B. ACE-tRNA sequences were cloned as DNA oligos into the HTC plasmid using Golden Gate cloning^30 paired with ccdB negative selection^31. This strategy produced ˜100% cloning efficiency. ACE-tRNA suppression efficiency was read out from a split NanoLuc luciferase (NLuc) NanoBiT platform whereby the PTC of interest (UGA, UAA, or UAG) was introduced in-frame at the junction between the large bit and small bit domains, FIG. 21B^32, using a 96-well format and normalized to background obtained in NLuc-PTC expressing cells. Twenty-one glycine ACE-tRNAs were first evaluated for suppression of the UGA PTC, FIG. 22, top left, column 1 (violet). […] Given the high sequence conservation among the Gly-tRNAs screened for anti-codon tolerance (FIG. 27), it would be difficult to predict de novo which tRNA would be most amenable to anticodon-editing.
(§3) The parent plasmid used was pcDNA3.1(+). The cDNA encoding pNLuc was Gibson Assembled (New England Biolabs, USA) into restriction sites HindIII and XhoI. A glycine (codon gga), tryptophan ([…]), amber (tag), opal (tga) and ochre (taa), were added to amino acid position 160 during cDNA per. The pcDNA3.1(+) polyA sequence was replaced for one with no BbsI restriction sites using per based Gibson Assembly. The high throughput ACE-tRNA Golden Gate cloning site was generated by first inserting the 5′ leader sequence of the human tRNA^Tyr gene (bold) with a T7 promoter sequence upstream (italics)
(§4) tRNA gene sequences were obtained from the tRNA database tRNAscan-SE (http://gtrnadb.ucsc.edu/index.html; PMID: 26673694). […]

The test system of a further data set is NLuc-UAA PTC. In words: NanoLuc nonsense reporter screen (all-in-one HTC plasmid), TAA/UAA PTC, HEK293 cells. Particulars: Table 3, Gln TAA.
Description: as §1, §2, §3, §4

In the case of `CN[C@@H]1[C@@H](O)[C@@H](O[C@@H]2[C@@H](O)[C@H](O[C@H]3O[C@H]([C@@H](C)O)[C@@H](O)[C@H](O)[C@H]3N)[C@@H](N)C[C@H]2N)OC[C@]1(C)O` [G418, reference compound], in data set [1] (HEK293, log 2-fold change versus control), the “ribosome occupancy at each nucleotide in the 3′UTR downstream of stop codons” value is given as “no observable change of ribosome occupancy”. Besides, in data set [1] (HEK293, G418 150 μM, 48 hours, cognate stop codon group), the “change of 3′UTR ribosome density versus control” value is “no observable effect”.

B1: GluTAGchr13.trna2: ACE-tRNA Glu, TAG suppressor, SEQ ID NO: 38 (nucleic acid)
chain: CGTCTCCCACATGGTCTAGCGGTTAGGATTCCTGGTTCTAACCCAGGCGGCCCGGGTTCGACTCCCGGTGTGGGAA
modifications: expressed or natural sequence
For the molecule B1, in the data set on NLuc-UAG PTC (Table 5, Glu TAG), the Ranking entry is recorded as “#1”.

B2: GluTAGchr2.trna18: ACE-tRNA Glu, TAG suppressor, SEQ ID NO: 39 (nucleic acid)
chain: CGTCTCCCATATGGTCTAGCGGTTAGGATTCCTGGTTCTAACCCAGGTGGCCCGGGTTCGACTCCCGGTATGGGAA
modifications: expressed or natural sequence
On to B2, for which, in the data set with NLuc-UAG PTC (Table 5, Glu TAG), the Ranking result is “#2”.

B3: GlnTAAchr1.trna17: ACE-tRNA Gln, TAA suppressor, SEQ ID NO: 26 (nucleic acid)
chain: CGTCGGTTCCATGGTGTAATGGTGAGCACTCTGGACTTTAAATCCAGCGATCCGAGTTCGAGTCTCGGTGGAACCT
modifications: expressed or natural sequence
For the molecule B3, the Ranking entry in the data set on NLuc-UAA PTC is reported as “#3”.

B4: GlnTAAchr1.trna101: ACE-tRNA Gln, TAA suppressor, SEQ ID NO: 24 (nucleic acid)
chain: CGTCGGTTCCATGGTGTAATGGTAAGCACTCTGGACTTTAAATCCAGCGATCCGAGTTCGAGTCTCGGTGGAACCT
modifications: expressed or natural sequence
Regarding B4, in the data set with NLuc-UAA PTC, the Ranking result is “#1”.

B5: GlnTAAchr6.trna1: ACE-tRNA Gln, TAA suppressor, SEQ ID NO: 27 (nucleic acid)
chain: CGTCGGTTCCATGGTGTAATGGTTAGCACTCTGGACTTTAAATCCAGCGATCCGAGTTCAAATCTCGGTGGAACCT
modifications: expressed or natural sequence
Take B5: in the data set on NLuc-UAA PTC, the Ranking entry is “#4”.

B6: GlnTAAchr6.trna175: ACE-tRNA Gln, TAA suppressor, SEQ ID NO: 25 (nucleic acid)
chain: CGTCGGCCCCATGGTGTAATGGTTAGCACTCTGGACTTTAAATCCAGCGATCCGAGTTCAAATCTCGGTGGGACCT
modifications: expressed or natural sequence
With B6, the Ranking entry in the data set with NLuc-UAA PTC is given as “#2”.

B7: GlnTAAchr6.trna63: ACE-tRNA Gln, TAA suppressor, SEQ ID NO: 29 (nucleic acid)
chain: CGTCGGTCCCATGGTGTAATGGTTAGCACTCTGGACTTTAAATCCAGCAATCCGAGTTCGAATCTCGGTGGGACCT
modifications: expressed or natural sequence
B7: the Ranking result in the data set with NLuc-UAA PTC is given as “#5.2”.

B8: GlnTAAchr17.trna14: ACE-tRNA Gln, TAA suppressor, SEQ ID NO: 28 (nucleic acid)
chain: CGTCGGTCCCATGGTGTAATGGTTAGCACTCTGGACTTTAAATCCAGCGATCCGAGTTCAAATCTCGGTGGGACCT
modifications: expressed or natural sequence
With B8, in the data set on NLuc-UAA PTC, the Ranking result is reported as “#5”.

B9: TrpTAGchr12.trna6: ACE-tRNA Trp, TAG suppressor, SEQ ID NO: 36 (nucleic acid)
chain: CGTCGACCTCGTGGCGCAACGGTAGCGCGTCTGACTCTAGATCAGAAGGCTGCGTGTTCGAATCACGTCGGGGTCA
modifications: expressed or natural sequence
In the case of B9, the Ranking entry in the data set on NLuc-UAG PTC (Table 4, Trp TAG) was “#4”.

B10: TrpTAGchr17.trna10: ACE-tRNA Trp, TAG suppressor, SEQ ID NO: 33 (nucleic acid)
chain: CGTCGACCTCGTGGCGCAATGGTAGCGCGTCTGACTCTAGATCAGAAGGTTGCGTGTTCAAGTCACGTCGGGGTCA
modifications: expressed or natural sequence
For the molecule B10, the Ranking entry in the data set with NLuc-UAG PTC (Table 4, Trp TAG) is “#1”.

B11: GluTAGchr1.trna123: ACE-tRNA Glu, TAG suppressor, SEQ ID NO: 40 (nucleic acid)
chain: CGTCTCCCTGGTGGTCTAGTGGCTAGGATTCGGCGCTCTAACCGCCGCGGCCCGGGTTCGATTCCCGGTCAGGGAA
modifications: expressed or natural sequence
Turning to B11, in the data set on NLuc-UAG PTC (Table 5, Glu TAG), the Ranking result is “#3”.

B12: GluTAGchr1.trna106: ACE-tRNA Glu, TAG suppressor, SEQ ID NO: 41 (nucleic acid)
chain: CGTCTCCCTGGTGGTCTAGTGGTTAGGATTCGGCGCTCTAACCGCCGCGGCCCGGGTTCGATTCCCGGTCAGGGAA
modifications: expressed or natural sequence
Take B12: the Ranking result in the data set on NLuc-UAG PTC (Table 5, Glu TAG) is on record as “#4”.
